Patent publication US20130274191A1 (THOMAS JEFFERSON UNIVERSITY, published 2013)
Non-standard residues stand in square brackets, D forms with d. No end group written: not given here. Sar = CNCC(=O)O

Biological target: T1, human Angiotensin II type 1 receptor (AT1R) (human, UniProt P30556 1-359, limits assumed)
T1 sequence (looked up): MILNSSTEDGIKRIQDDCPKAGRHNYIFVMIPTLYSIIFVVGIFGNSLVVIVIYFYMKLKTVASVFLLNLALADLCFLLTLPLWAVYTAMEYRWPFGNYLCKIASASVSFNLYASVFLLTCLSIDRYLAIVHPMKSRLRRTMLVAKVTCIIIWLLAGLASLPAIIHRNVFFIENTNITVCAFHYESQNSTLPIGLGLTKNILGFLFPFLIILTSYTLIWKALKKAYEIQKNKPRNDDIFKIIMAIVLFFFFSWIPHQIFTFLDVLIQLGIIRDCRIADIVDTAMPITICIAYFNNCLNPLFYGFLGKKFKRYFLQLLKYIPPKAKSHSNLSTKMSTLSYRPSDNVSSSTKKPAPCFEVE
Test: cell-based or functional assay

- βarr activation by the AT1R, potency relative to AngII: 10 times less potent than AngII
B1: CORET: Sar^1,Cys(Et)^5,Leu^8-AngII (peptide)
peptide: [Sar]RVY[Cys(Et)]HPL
